The values below come from the nanobody polyreactivity screen of Harvey et al. (2022).

This series in a line: yeast display, Sf9 membrane polyspecificity reagent, FACS + sequencing; frameworks hold sequencing errors. The gist of the method:
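Using colony PCR, genes from sorted yeast display clones were amplified, then sequenced on MiSeq at 2 × 250 and filtered by CDR length. The clones had been stained with 10% biotinylated, detergent-solubilized Sf9 membrane reagent for 1 hour at 4 °C and sorted by FACS into low and high (top ~1%) gates on anti-HA and streptavidin fluorescence. Polyreactivity labels come from the gate of origin.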
In the case of “QVQLVESGGGLVQAGGSLRLSCAASGFTSKGYAMGWYRQAPGKERELVATIRSRGGGTYYADSVKGRFTISRDNAKNTVYLQMNSLKPEDTAVYYCAAERKNKYDYWGQGTQVTVSS”, the “polyreactivity (PSR sort gate)” value is on record as “high polyreactivity”.
The value for “QVQLVESGGGLVQAGGSLRLSCAASGFTSRKNAMGWYRQAPGKERELVAAITQSSGRTYYADSVKGRFTISRDNAKNTVYLQMNSLKPEDTAVYYCAARRGGEDDYWGQGTQVTVSS” was “low polyreactivity”; that for “QVQLVESGGGLVQAGGSLRLSCAASGFTSRYVMGWYRQAPGKERELVASISRSGGSTYYADSVKGRFTISRDNAKNTVYLQMNSLKPEDTAVYYCAALGLSYSSRYYHWQNEFDYWGQGSQVTVSS” was “high polyreactivity”; that for “QVQLVESGGGLVQAGGSLRLSCAASGFTSSRNAMGWYRQAPGKERELVATISSGGDTYYADSVKGRFPISRDNAKTTVYLQMNSLKPEDTAVYYCNKDPLYAWGYDYWGQGTQVTVSS” was “low polyreactivity”.
“QVQLVESGGGLVQAGGSLRLSCAASGFTSTLNDMGWYRQAPGKERELVAAISNGGSTYYADSVKGRFTISRDNAKNTVYLQMNSLKPEDTAVYYCAVTATAPQEGDYWGQGTQVTVSS”: the “polyreactivity (PSR sort gate)” value is recorded as “low polyreactivity”.
The entry for “QVQLVESGGGLVQAGGSLRLSCAASGFTVSWYVMGWYRQAPGKERELVAAITWSGGNTYADSVKGRFTISRDNAKNTVYLQMNSLKPEDTAVYYCAADPAHGTKWYVYPSHDDYWGQGTQVTVSS” is “low polyreactivity”.
The entry for “QVQLVESGGGLVQAGGSLRLSCAASGFTYRNYAMGWYRQAPGKERELVAAISRGGGSTYYADSVKGRFTISRDNAKNTVYLQMNSLKPEDTAVYYCAVAYPFYVKTLFSPEADYNYWGQGTQVTVSS” is “high polyreactivity”.
As to “QVQLVESGGGLVQAGGSLRLSCAASGFTYRPNAMGWYRQAPGKERELVASIRYSGGSTYYADSVKGRFTISRDNAKNTVYLQMNSLKPEDTAVYYCAAVLYSWMRLGSTYTYDYWGQGTQVTVSS”, the “polyreactivity (PSR sort gate)” value is listed as “low polyreactivity”.
Take “QVQLVESGGGLVQAGGSLRLSCAASGFTYSTNAMGWYRQAPGTERELVAAISGSGGSTYYADSVKGRFTISRDNAKNTVYLQMNSLKPEDTAVYYCAARCPYYSWGRYEYYYWGQGTQVTLSS”: the “polyreactivity (PSR sort gate)” value was “high polyreactivity”.
Take “QVQLVESGGGLVQAGGSLRLSCAASGFYAMGWYIQAPGKERELVAAIRYRGGSTYYADSVKGRFTFSRDNAKNTVDLQMNSLKPEDTAVYYCAASTGPDRQFDSWGQGTQVTVSS”: the “polyreactivity (PSR sort gate)” value is given as “low polyreactivity”.
For “QVQLVESGGGLVQAGGSLRLSCAASGGIFADYAMGWYRQAPGKERELVADISARGGSTYNADSVKGRFTISRDNAKNTVYLQMNSLKPEDTAVYYCATDGPGYPPTLRYDYWGQGTQVTVSS”, the “polyreactivity (PSR sort gate)” value is reported as “low polyreactivity”.
The value for “QVQLVESGGGLVQAGGSLRLSCAASGGIFAYMGWYRQAPGKERELVASITSSGGSTYYADSVKGRFTISRDNAKNTVYLQMNSLKPEDTAVYYCAADPDFYKSVQYDYWGQGTQVTVSS” was “low polyreactivity”; that for “QVQLVESGGGLVQAGGSLRLSCAASGGIFAYNAMGWYRQAPGKERELVATISYSGGSTYYADSVKGRFTISRDNAKNTVYLQMNSLKPEDTAVYYCATRLYGWRGRYNYWGQGTQVTVSS” was “high polyreactivity”; that for “QVQLVESGGGLVQAGGSLRLSCAASGGIFDGNAMGWYRQAPGKERELVAAISSGGITKYADSEKGRFTISRDNAKNTVYLQMNSLKPEDTAVYYCAASWYRYRFIRYDYWGQGTQVTVSS” was “high polyreactivity”.
The entry for “QVQLVESGGGLVQAGGSLRLSCAASGGIFDINAMGWYRQAPGKERELVAAISWGGGSTYYADSVKGRFTISRDNAKNTVYLQMNSLKPEDTAVYYCAAESVSIQPTPDEDYWGQGTQVTVSS” is “high polyreactivity”.
The entry for “QVQLVESGGGLVQAGGSLRLSCAASGGIFDRYAMGWYRQAPGKERELVAAITGSGGRTYYADSVKGRFTISRDKAKNSVYLQMTSLKPVDPAVYYCARAFGQRRYDYWGHGTQVTVSS” is “high polyreactivity”; for “QVQLVESGGGLVQAGGSLRLSCAASGGIFDRYAMGWYRQAPGKERELVAGITWSGGRTYYADSVKGRFTISRDNAKNTVYLQMNSLKPEDTAVYYCAASLYTWTYQPVYYRDGYWGQGTQVTVSS” it is “low polyreactivity”.
As to “QVQLVESGGGLVQAGGSLRLSCAASGGIFEANVMGWYRQAPGKERELVAAITSGGSTNYADSVKGRFTISRDNAKNTVYLQMNSLKPEDTAVYYCAADRPDGWVDYWGQGTQVTVSS”, the “polyreactivity (PSR sort gate)” value was “low polyreactivity”.
The entry for “QVQLVESGGGLVQAGGSLRLSCAASGGIFFSYAMGWYRQAPGKERELVAAIRTNGGTTYYADSVKGRFTISRDNAKNTVYLQMNSLKPEDTAVYYCAALPGGYYDRGEYDYWGQGTQVSVSS” is “low polyreactivity”.
The value for “QVQLVESGGGLVQAGGSLRLSCAASGGIFGLYTMGWYRQAPGKERELVAAISKTGGSTYYADSVKGRFTISRDNAKNTVYLQMNSLKPEDTAVYYCAKAGRYANLPYGYWGQGTQVTVSS” was “high polyreactivity”; that for “QVQLVESGGGLVQAGGSLRLSCAASGGIFGRNAMGWYRQAPGKEMELVAAISSSGGTTYYADSVKGRFTISRDYAKNTVYLQMNSMKPEDTAVYYCNAAYYWRSFHDDYFGQGTQVTVSS” was “high polyreactivity”; that for “QVQLVESGGGLVQAGGSLRLSCAASGGIFGSYAMGWYRQAPGKERELVAAISGGSTYYADSVKGRFTISRDNAKNTVYLQMTSLKPEDTAVYYCAAGWSVWYQDFDYWGQGTQVTVSS” was “high polyreactivity”.
The entry for “QVQLVESGGGLVQAGGSLRLSCAASGGIFGSYAMGWYRQAPGKERELVAAISWRGGSTYYADSVKGRFTISRDNAKNTVYLQMNSLKPEDTAVYYCAARYRWGYSTSYSYRFDYWGQGTQVTVSS” is “high polyreactivity”.
As to “QVQLVESGGGLVQAGGSLRLSCAASGGIFGSYTMGWYRQAPGKERELVAGISDSGGSTYYADSVKGRFTISRDNAKNIVYLQMNSLKPEDTAVYYCAAVEAYGQEYDYWGQGTQVTVSS”, the “polyreactivity (PSR sort gate)” value is “low polyreactivity”.
The value for “QVQLVESGGGLVQAGGSLRLSCAASGGIFGYYAMGWYRQAPGKERELVAAINYSGGSTYYADSVKGRFTISRDNAKNTVYLQMNSLKPEDTAVYYCNAVVRDYTFRYYYWGQGTQVTVSS” was “low polyreactivity”.
Regarding “QVQLVESGGGLVQAGGSLRLSCAASGGIFGYYAMGWYRQAPGKERELVAAISSSGGSTYYADSVKGRFTISRDNAKNTVYLQMNSLKPEDTAVYYCAAYRKVGGFSRGDYWGQGTQVTVSS”, the “polyreactivity (PSR sort gate)” value is “high polyreactivity”.
The value for “QVQLVESGGGLVQAGGSLRLSCAASGGIFGYYTMGWYRQAPGKERELVAAITWRGSTYYADSVKGRFTISRDNAKNTVYLQMNSLKPEDTAVYYCAARYYSPYGYCGQGTQVTVSS” was “high polyreactivity”.
The entry for “QVQLVESGGGLVQAGGSLRLSCAASGGIFHYYAMGWYRQAPGKERELVAAISWNTGSTYYADSVKGRFTISRDNAKNTVYLQMNSLKPVDTAVYYCAASYRSPWLRYDYWGQGTQVTVSS” is “high polyreactivity”; for “QVQLVESGGGLVQAGGSLRLSCAASGGIFIDYALGWYRQAPGKERELVAAITYSGTSTSYADSVKGRFTISRDNAKITVYLQMNSLKPEDTAVYYCNTYPVLFYVGLDYWGQGTQVTVSS” it is “low polyreactivity”; for “QVQLVESGGGLVQAGGSLRLSCAASGGIFIFYAMGWYRQAPGKERELVAAISNVSSTNYADSVKGRFTISRDNAQNTVYLQMNSLKPEDTAVYYCNAVCVPSEYYSWGQGSQVTVSS” it is “low polyreactivity”.
Consider “QVQLVESGGGLVQAGGSLRLSCAASGGIFKRNTMGWYRQAPGKERELGAGISWTGGRTYYADSVKGRFTISRDTAKNTVYLQMNSLKPEDTAVYYCAAKPLQGVRRVEYWGQGTQVTVSS”, for which the “polyreactivity (PSR sort gate)” value is reported as “high polyreactivity”.
The value for “QVQLVESGGGLVQAGGSLRLSCAASGGIFKSNTMGWYRQAPGKERELFAAITSGGSTNYADSVKGRFTISRDNAKNTVYLQMNSLKPEDTAVYYCNTDDRYYTPSRAVFQYDYWGQGTQVTVSS” was “low polyreactivity”; that for “QVQLVESGGGLVQAGGSLRLSCAASGGIFLSNAMGWYRQAPGKERELVAAISRSGGSTYYADSVKWRFTISRDNAKNTVYLQMYSLKPEDTAVYYCAARWTRNYGMNYWGQGTQVTVSS” was “high polyreactivity”.
The value for “QVQLVESGGGLVQAGGSLRLSCAASGGIFLVNDMGWYRQAPGKERELFAAITSGGGTYYADSVKGRFTISRDNAKNTVYLQMNSLKPEDTAVYYCARDTYRQIVSNESYGYWGQGTQVTVSS” was “low polyreactivity”; that for “QVQLVESGGGLVQAGGSLRLSCAASGGIFNYYAMGWYRQAPGKERELVAAISASGGSTYYADSVKGRFTISRDNAKNTVYLQMNSLKQEDTAVYYCAAKYPQKTPVNSYGNSFYYWGQGTQVTVSS” was “low polyreactivity”.
As to “QVQLVESGGGLVQAGGSLRLSCAASGGIFPSYAMGWYRQAPGKERELVAAITRGASTYADSVKGRFTISRDNAKNTVYLQMNSLKPEDTAVYYCAADTKRRSIRYDYWGQGTQVTVSS”, the “polyreactivity (PSR sort gate)” value is given as “high polyreactivity”.
As for “QVQLVESGGGLVQAGGSLRLSCAASGGIFPYYAMGLYRQAPGKERELVADISSGGSTYYEDSVKGRFTISRDNAKNTVYLQMNSLKPEDTAVYYCAAEDTLAGSVARFGEYDYWGQGTQVTVSS”, the “polyreactivity (PSR sort gate)” value is “low polyreactivity”.
The value for “QVQLVESGGGLVQAGGSLRLSCAASGGIFPYYAMGWYSQAPGKEMELVAGISQNDGRTYYADSVKGRFTISRDNAKNTVYLQMNSLKPEDTAVYYCATVYWYPRYGYWGQGTQVTVSS” was “low polyreactivity”; that for “QVQLVESGGGLVQAGGSLRLSCAASGGIFQENAMGWYRPAPGKERELVATITRSTGSTYYADSVKGRFTISRDNAKNTVYLQMNSLKPEDTAVYYCAARRRSQYYRYAYKYDYWGQGTQVTVSS” was “high polyreactivity”; that for “QVQLVESGGGLVQAGGSLRLSCAASGGIFQENAMGWYRQAPGKERELVATITRSTGSTYYADSVKGRFTISRDNAKNTVYLQMNSLKPEDTAVYYCAARRRSQYYRYAYKYDYWGQGTQVTVSS” was “high polyreactivity”.
Regarding “QVQLVESGGGLVQAGGSLRLSCAASGGIFQGNVMGWYRQAPGKERELVASIRRGGSTNYADSVKGRFTISRDNAKNTVYLQMNSLKPEDTAVYYCSARKWVGYHVWPLREYNYWGQGTQVTVSS”, the “polyreactivity (PSR sort gate)” value is given as “low polyreactivity”.
